Target: the molecule itself
Assay: SEC + crystal structure

B1: E,Z-farnesyl diphosphate synthase (Rv1086) (enzyme)
chain: MEIIPPRLKEPLYRLYELRLRQGLAASKSDLPRHIAVLCDGNRRWARSAGYDDVSYGYRMGAAKIAEMLRWCHEAGIELATVYLLSTENLQRDPDELAALIEIITDVVEEICAPANHWSVRTVGDLGLIGEEPARRLRGAVESTPEVASFHVNVAVGYGGRREIVDAVRALLSKELANGATAEELVDAVTVEGISENLYTSGQPDPDLVIRTSGEQRLSGFLLWQSAYSEMWFTEAHWPAFRHVDFLRALRDYSARHRSYGR
  stoichiometry N: 2
